Test results reported in patent US5723761.

Assays:
C16:0-ACP [1] = target: C16:0-ACP
C14:0-ACP [2] = target: C14:0-ACP
C16:0-ACP [3] = target: C16:0-ACP; remark: listed apart in the source
C14:0-ACP [4] = target: C14:0-ACP; remark: listed apart in the source

Fatty Acyl Composition of Transgenic Canola Seeds (mol %), 10:0 (C10:0-ACP) | Fatty Acyl Composition of Transgenic Canola Seeds (mol %), 16:0 (C16:0-ACP [1]) | Fatty Acids (nmol/ml), total fatty acid analysis of liquid cultures of CUPH-1 transformed K27 (fadD) (12:1-ACP) | Fatty Acids (nmol/ml), total fatty acid analysis of liquid cultures of CUPH-1 transformed K27 (fadD) (14:1-ACP) | Fatty Acids (nmol/ml), total fatty acid analysis of liquid cultures of CUPH-1 transformed K27 (fadD) (16:1-ACP) | Fatty Acids (nmol/ml), total fatty acid analysis of liquid cultures of CUPH-1 transformed K27 (fadD) (C12:0-ACP) | Fatty Acids (nmol/ml), total fatty acid analysis of liquid cultures of CUPH-1 transformed K27 (fadD) (C14:0-ACP [2]) | Fatty Acids (nmol/ml), total fatty acid analysis of liquid cultures of CUPH-1 transformed K27 (fadD) (C16:0-ACP [3]) | Fatty Acids (nmol/ml), total fatty acid analysis of liquid cultures of CUPH-1 transformed K27 (fadD) (C18:1-ACP) | Fatty Acyl Composition of Transgenic Canola Seeds (mol %), 14:0 (C14:0-ACP [4]) | Substance
3.94 mol % | 20 mol % | – | – | – | – | – | – | – | – | elm Class II acyl-ACP thioesterase (ULM-1) (enzyme)
– | 27.6 mol % | 0.3 nmol/mL | 1.1 nmol/mL | 124 nmol/mL | 2 nmol/mL | 225 nmol/mL | 281 nmol/mL | 92.7 nmol/mL | 0.98 mol % | Cuphea hookeriana Class II thioesterase CUPH-1 (cDNA clone CMT9) (enzyme)
